Residue numbers refer to the chain shown, from its start.
What was measured:
[1] = tested on: whole blood; test: Whole blood loop assay (ID.Flow); type: cell-based, human; conditions: blood of six healthy volunteers, 24 hr
Description: Flow, an ex vivo system that mimics the human blood circulation. Fresh whole blood was taken from six healthy volunteers and immediately transferred to a whole blood loop system. The test items were administered, and the blood was set to circulate at 37° C. to prevent clotting. Blood samples collected at the 24 hr time point were analyzed for hematology and flow cytometry parameters and then processed to plasma for cytokine analysis. The anti-CD52 antibody Alemtuzumab was included as a reference antibody with manageable cytokine release in the clinic.

[2] = SEC-HPLC % monomer; type: physicochemical; conditions: optimized antibodies
Description: A TSKgel SuperSW mAb HTP column (22855) was used for fast SEC analysis of mammalian produced mAbs at 0.4 mL/min with a cycle time of 6 min/run. 200 mM Sodium Phosphate and 250 mM Sodium Chloride was used as the mobile phase.

[3] = Fab Tm by dynamic scanning fluorimetry (DSF); type: physicochemical; conditions: optimized antibodies
Description: 10 μL of 20× Sypro Orange is added to 20 μL of 0.2-1 mg/mL mAb or Fab solution. A RT-PCR instrument (BioRad CFX96 RT PCR) is used to ramp the sample plate temperature from 40 to 95° C. at 0.5° C. increment, with 2 min equilibrate at each temperature. The negative of first derivative for the raw data is used to extract Tm.

[4] = tested on: B16/Db-hmgp100 melanoma model; test: B16/Db-hmgp100 syngeneic tumor model; conditions: 10 mg/kg from day 4
Description: B16/Db-hmgp100 cells were kindly provided by Dr. Hanada et al. (HHS agency) and were licensed from NIH. B16/Db-hmgp100 cells were generated by double transduction of B16F10 with H-2Db and a retrovirus that encodes chimeric mouse gp100 that is comprised of the human gp10025-33 and the rest of mouse gp100. Cells were cultured in RPMI 1640 (Biological Industries, 01-100-1A) with 10% FBS (Biological Industries, 04-127-1A), and 100 g/mL penicillin/streptomycin (Biological Industries, 03-031-1B), 1% Glutamax (Life technologies, 35050-038), 1% Sodium pyruvate (Biological Industries, 03-042-1B), 0.01% 2-mercaptoethanol (Life technologies, 31350-010), 10 μg/ml Blasticidin (InvivoGen, ant-bl-05). 1×10^5 B16/Db-hmgp100 cells subcutaneously into the back right flank of mice.
In both CT26 and B16/Db-hmgp100 models mAb administration started at day 4 (mono treatment) or day 7 post tumor inoculation when tumors were at volume of 30-50 mm^3 (combo treatment); and was given intra-peritoneal (i.p.) in a final volume/injection of 200 μl, for 3 wks for a total of 6 administrations. Tumor growth was measured with electronic caliper every 2-3 days and was reported as 0.5×W^2×L mm^3. […]
At day 4 post tumor inoculation mice were treated with mAbs (as detailed below) injected on day 4, 7, 11, 14, 18 and 21 post inoculation. Tumor growth was measured with caliper every 2-3 days. […]

[5] = target: T1, recombinant human IL18-BP (Homo sapiens, UniProt O95998); test: MEL624:TIL assay; type: cell-based; conditions: rhIL-18 30 ng/ml + rhIL-18BP 1 μg/ml, vs isotype control
T1 construct: purchased R&D systems 119-BP
T1 sequence (O95998 31-194): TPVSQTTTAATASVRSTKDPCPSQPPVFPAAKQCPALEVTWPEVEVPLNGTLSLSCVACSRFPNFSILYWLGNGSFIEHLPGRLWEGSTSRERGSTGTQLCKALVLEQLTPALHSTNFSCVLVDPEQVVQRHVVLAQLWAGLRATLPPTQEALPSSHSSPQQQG
Description: Human MEL624 cells were thawed and grown in DMEM with 10% FBS, 1% Glutamax, 1% Penicillin-Streptomycin Solution and 1% HEPES buffer. The cells were then seeded at 75 k cells/well in a 96 well plate in the assay medium (IMDM with 10% human serum, 1% Glutamax, 1% MEM eagle, 1% Sodium Pyruvate and 1% Penicillin-Streptomycin Solution) and incubated 1 hour in 37° C., 5% CO2 incubator before co-culture with human tumor infiltrating lymphocytes that were previously expanded using known melanoma antigens (TILs). Human TILs were thawed in full TIL media and 75 k cells/well were co-cultured with the MEL624 cells to create an effector: target ratio of 1:1. The co-cultured cells were then treated with rhIL-18 (30 ng/ml) and rhIL-18BP (1 μg/ml) for 30 min in 37° C., 5% CO2 incubator to allow IL-18:IL-18BP complex formation. After 30 minutes, anti-human IL-18BP mAb (ADI-71722, dose titration, 30 μg/ml-0.01 μg/ml, dilution factor of 1:3) or relevant isotype control (hIgG1 30 μg/ml) were added to the co-culture to examine its capability to restore IL-18 activity. Cells and all added solutions were prepared in full assay medium to a final volume of 200 μl/well. Plates were incubated for 24 hours in 37° C., 5% CO2 incubator, after which the supernatant was collected for cytokine secretion evaluation. All tests were done in triplicates and each repeated with TIL four donors. […]

[6] = target: T1, recombinant human IL18-BP; test: CMV recall assay; type: cell-based
Description: Human MEL-624 overexpressing PD-L1 cells were thawed and loaded with CMV pp65 peptide (0.03 μg/ml). The cells were seeded at 100K/well in a 96 well plate and incubated for 30 minutes in 37° C., 5% C02 incubator with a combination rhIL-18 (30 ng/ml, R&D systems, 9124-IL/CF) and rhIL-18BP-Fc chimeric protein (2 μg/ml, R&D systems 119-BP) to allow IL-18+IL-18BP complex formation. After 30 minutes, anti-human IL-18BP (ADI-71722), anti-human PVRIG, anti-human TIGIT (anti-TIGIT), anti-human PD1 (Pembrolizumab) or relevant isotype control (hIgG4) were added to the culture to examine their capability to restore IL-18 activity. All antibodies were added to a final concentration of 10 μg/ml. 30 minutes post incubation with antibodies, thawed CMV-reactive T-cells were added to the culture. Cells and all added solutions were prepared in full IMDM (IMDM media with 10% human serum, 1% Glutamax, 1% MEM eagle, 1% sodium pyruvate, and 1% Penicillin-Streptomycin Solution) to a final volume of 200 μl/well. Plates were incubated for 24 hours in 37° C., 5% C02 incubator, after which the supernatant was collected for IFNγ secretion evaluation. All tests were done in triplicates and each repeated with three donors.
MEL624 cells that overexpress PD-L1 were loaded with CMV peptide pp65. […] CMV-specific T-cells were then added to the culture and IFNg secretion was measured after an overnight incubation.

[7] = target: T2, human IL18BP-Fc binding to human IL-18 (Homo sapiens, UniProt O95998); test: Blocking of hIL18BP-hIL-18 interaction by ELISA, IL18BP plate bound; conditions: 1 ng/ml human IL-18, compared with clone W19089C
T2 sequence (O95998 31-194): T1 sequence (O95998 31-194)
Description: This assay was utilized to identify anti-human IL18BP Abs that inhibit the binding interaction between human IL18BP- and its counterpart, human IL-18. […] Human IL18BP-Fc protein was coated on the wells of a high binding plate overnight at 4° C. (1 μg/ml, 100 μl/well volume). Plates were washed three times with PBS-T buffer (1×PBS pH 7.4, 0.05% Tween20) incubated with 250 μL blocking buffer (2.5% skim milk in PBS) at room temperature (RT) for 2 hr. Blocking buffer was removed and plates were washed three times with PBS-T buffer. Plate-bound ligands were incubated with anti-human IL18BP Abs in 1% BSA in PBS buffer two times serially diluted (2.5-0.019 μg/ml, 100 μL/well volume) at RT for 1 h. Plates were washed one time with PBS. Plate-bound ligands were incubated with human IL-18 (cat. 9124-IL, R&D) in 1% BSA in PBS buffer (1 ng/ml, 100 μL/well volume) at RT for 1 h. Plates were washed three times with PBS-T (0.05% Tween20 in PBS). Biotinylated anti-IL18 detection antibody, cat. D045-6, R&D 1:1000 in 1% BSA in PBS buffer was added (100 μL/well). This was incubated at RT for 1 hr, and plates were washed again. Peroxidase Streptavidin, Jackson, cat. 016-030-084 1:1000 in 2.5% skim milk in PBS was added (100 μL/well) for 1 hr at RT. […] The HRP reaction was stopped by adding 50 μL 1N HCl and absorbance signals at 450 nm were read on a luminescence Reader-EnSpire (Perkin Elmar). […]

[8] = target: T3, human IL-18-BP : human IL-18 complex (Homo sapiens, UniProt O95998); test: Competition ELISA with complex of soluble IL18-IL18BP; type: binding; conditions: ADI-66716 vs MAB1191
T3 construct: purchased R&D systems 119-BP
T3 sequence (O95998 31-194): T1 sequence (O95998 31-194)
Description: This assay was utilized to identify anti-human IL18BP Abs that inhibit the binding interaction between human IL18BP- and its counterpart, human IL-18. Commercial Ab anti human IL18BP (Clone 136007, cat. MAB1191, R&D systems) and ADI-66716 were tested for inhibition of human IL18BP protein binding to IL-18 by ELISA. Human IL18BP antibody (cat.AF 119, R&D) was coated on the wells of a high binding plate overnight at 4° C. (1 ug/ml, 100 μl/well volume). Plates were washed three times with PBS-T buffer (1×PBS pH 7.4, 0.05% Tween20) incubated with 250 μL blocking buffer (2.5% skim milk in PBS) at room temperature (RT) for 2 hr. Blocking buffer was removed and plates were washed three times with PBS-T buffer. Complex pre-formed 1 hour at 37° C. with 0.25 nM human IL-18-BP (R&D, cat. 119BP) and 3 nM Human IL-18 Biotin (9124-IL, R&D) in 1% BSA in PBS buffer. Complex was incubated for 2 hrs at RT together with anti-human IL18BP Abs (in 1% BSA in PBS buffer two times serially diluted. 4-0.06 μg/ml, 100 μL/well volume). Peroxidase Streptavidin, Jackson, cat. 016-030-084 1:1000 in 2.5% skim milk in PBS was added (100 μL/well) for 1 hr at RT. Plates were washed three times with PBS-T buffer (1×PBS pH 7.4, 0.05% Tween20). […] The HRP reaction was stopped by adding 50 μL 1N HCl and absorbance signals at 450 nm were read on a luminescence Reader-EnSpire (Perkin Elmar). […]

B1: ADI-71709: anti-IL18-BP antibody, sequences in FIG. 2A; 66650 lineage (antibody, V domains shown)
VH: QVQLVQSGAEVKKPGASVKVSCEASGYTFDIYAVHWVRQAPGQRLEWMGWIHAGTGATKYSQKFQGRVTITRDTSASTAYMELSSLRSEDTAVYYCARGLGEVGPTGTSWFDPWGQGTLVTVSS
VL: DIQMTQSPSTLSASVGDRVTITCRASQSISSWLAWYQQKPGKAPKLLIYEASSLESGVPLRFSGSGSGTEFTLTISSLQPDDFATYYCQQYRQSPFTFGGGTKVEIK
[1]
  Signs of systemic immune activation, in combination with Nivolumab: did not show signs of systemic immune activation
[1]; hematology, flow cytometry, cytokines
  Signs of systemic immune activation, as mono: did not show signs of systemic immune activation
[2]
  SEC-HPLC, % monomer: 97.6%
[3]
  Fab Tm (DSF, ° C.): 71.5 °C

B2: anti-PVRIG: Anti PVRIG mAb 407 mAb mouse IgG1, BOJ-5G4-F4 (antibody, V domains shown)
VH: QVQLQQSGAELAKPGSSVMISCKASGYTFTNYAVHWIKQTTGQALEWTGYIAPGSGVTKYNEKFKGKATLTVDKSSTTAYMQLSSLTPVDTAVYYCASGTTRFAYWGQGTLVTVSS
VL: DIVLTQSPALAVSLGQRATISCRASQSVSLSSYNLMQWYQQKPGQEPKILIYDASNLPSGIPARFSGSGSGTDFTLTIDPVQADDIATYYCQQSKDDPLTFGSGTKLEIK
[4]
  Tumor growth, anti-PVRIG monotherapy: comparable tumor growth to mice treated with isotype control mAbs

B3: ADI-71722: anti-IL18-BP antibody, sequences in FIG. 2D; 66670 lineage (antibody, V domains shown)
VH: QVQLVQSGAEVKKPGSSVKVSCKASGGTFSEYPISWVRQAPGQGLEWMGGIIPGAGTAIYAQKFQGRVTITADESTSTAYMELSSLRSEDTAVYYCARGRHFHETWGQGTLVTVSS
VL: DIQMTQSPSSVSASVGDRVTITCRASQGISSWLAWYQQKPGKAPKLLIYAASSLQSGVPSRFSGSGSGTDFTLTISSLQPEDFATYYCQQVYRFPWTFGGGTKVEIK
[2]
  SEC-HPLC, % monomer: 95.9%
[5]
  IFNγ secretion from TILs: fully restore IL-18 activity
[3]
  Fab Tm (DSF, ° C.): 73.0 °C
[6]; 10 μg/ml, rhIL-18 30 ng/ml + rhIL-18BP 2 μg/ml
  IFNγ secretion by CMV-reactive T-cells, as mono: fully restore IFNγ secretion
[6]; combined with Pembrolizumab, anti-PVRIG or anti-TIGIT, each 10 μg/ml, vs mono
  IFNγ secretion by CMV-reactive T-cells, in combination: in a more potent manner
[7]
  Blocking effect on binding of human IL18BP to human IL-18: superior to Biolegend Ab

B4: ADI-66716: anti-IL18-BP antibody, sequences in FIG. 2N; parental (antibody, V domains shown)
VH: QLQLQESGPGLVKPSETLSLTCTVSGGSISSSDYYWGWIRQPPGKGLEWIGSIYYSGSTYYNPSLKSRVTISVDTSKNQFSLKLSSVTAADTAVYYCARGPHRQVFDYWGQGTLVTVSS
VL: B3 VL with V91G, Y92S, R93S, W96Y
[8]
  Blocking of IL18-IL18BP complex formation: superior blocking effect to R&D antibody
